Assay results from the supplement of paper PMC10126150.
± gives the standard deviation of the averaged measurements.

Tested on: ATP
Experiment: switch fluorescence ratio, 500 uM ATP over buffer (Cy3 cluster intensity, sum of 5 cycles each) (fold (ratio)); higher = stronger signal-on switching upon ATP binding; sequences stand for … in TCGTCGGCAGCGTCAGATGTGTATAAGAGACAGTTTTTTTTTTTTTTTTTTTTTTTTT…TC
Settings: aptamer strand: ATP DNA aptamer (quencher-CACCTGGGGGAGTATTGCGGAGGAAGG + anchor), 100 nM annealed; ATP concentration: 500 uM
Method in brief: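 The quencher-labelled ATP aptamer, at 100 nM, was annealed to Cy3-labelled switching-strand clusters on a modified Illumina MiSeq flow-cell. The clusters were imaged in selection buffer, then after 15 min with 500 uM ATP at 22 °C, and this buffer/ATP cycle ran five times with NaOH stripping and re-annealing between runs. Per-cluster fluorescence ratios, summed target-cycle over summed buffer-cycle Cy3 intensity, were averaged per switch-domain sequence. Clusters outside 100-1000 RFU were excluded.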
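Also: ATP exposure 15 min at 22 °C before imaging.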

Sequence | switch fluorescence ratio
TATGAAGGGG | 1.22 ± 0.34
TATCTGGGGG | 1.01 ± 0.055
CTATGTATTT | 1.002 ± 0.0011
GGATGGTTGG | 1.012 ± 0.0068
GGTGGGTGGG | 0.999 ± 0.042
CTATAATGTT | 0.9949 ± 0.0059
TGATACCATG | 0.997 ± 0.018
GCGATGTGAC | 1.22 ± 0.059
ATTTTGCCGT | 1.02 ± 0.027
CAAGGGTATG | 1.03 ± 0.046
GGGTATCCTT | 1.01 ± 0.025
TTTTGCAAAT | 1.13 ± 0.11
GTTGGTGTGG | 0.9975 ± 0.0086
TTGTTCCGAT | 1.02 ± 0.032
CAGAACGTTG | 0.983 ± 0.016
ATTAGGTGTT | 1.03 ± 0.066
ATGAATAAGG | 0.983 ± 0.028
GGAGGAGTTT | 1.65 ± 0.92
AATTTGCCGT | 1.04 ± 0.042
AGCAGGAGCC | 1.061 ± 0.0063
AAAAGGGTCT | 1.02 ± 0.024
CATAAGGCTC | 1 ± 0.02
TTAATTTAG | 0.985 ± 0.027
GGGGTTTCTC | 1.02 ± 0.031
ACGAGAGGGT | 0.973 ± 0.023

Sequence | switch fluorescence ratio
TTTTTGTAAT | 1.04 ± 0.055
TTTTAGAAAT | 1.98 ± 1.3
AGGGTATGGG | 1.03 ± 0.058
AAAGTTTACA | 1.03 ± 0.014
TTACCAGAGT | 1.02 ± 0.011
GTGTAAGTGT | 0.9821 ± 0.0046
ATCAGCGCGG | 1.013 ± 0.0027
AGGTGTTTTG | 1.02 ± 0.0087
AAAGCTTTGG | 0.963 ± 0.021
GAGGCCGGAA | 1.07 ± 0.016
ACGACCGTTG | 1.02 ± 0.061
TATTAGAGCG | 1.02 ± 0.025
GGTTTAGATG | 1.02 ± 0.015
GTTTTGAATT | 1 ± 0.04
AGCATGTGGT | 1 ± 0.026
GATGGGGCGG | 1.01 ± 0.048
GCTCTAATTG | 1.008 ± 0.0058
TGAGCTAGGG | 1.005 ± 0.0026
TTGAGGGAGA | 1.02 ± 0.058
ATAGTCGCCC | 1.009 ± 0.0031
TATAGGGGGA | 1.04 ± 0.024
TTTGTTAGA | 0.988 ± 0.012
TTGTTGGAGT | 0.985 ± 0.018
GCTGGTTGGC | 0.964 ± 0.016
TAAAGATAAG | 0.98 ± 0.024

Sequence | switch fluorescence ratio
CGGGGGTCAA | 0.99 ± 0.011
TCTTGGAACG | 0.998 ± 0.015
TCTTAAAGAT | 1.06 ± 0.022
TTCTTTTTCG | 0.973 ± 0.056
ACCTATTCGT | 1.054 ± 0.0047
CAGTAATTGT | 0.9856 ± 0.0029
AATATAGGGT | 0.997 ± 0.028
TTAGGAAGTG | 0.999 ± 0.017
TGGGGGCAGT | 1.12 ± 0.066
GCGGCGTCAA | 1.064 ± 0.0067
TTTGTATATT | 1.01 ± 0.053
TAACAGGTAG | 1.05 ± 0.035
AAGCCATCCG | 1.07 ± 0.04
CGCGGAGTGA | 1.002 ± 0.01
TTTTGACGAG | 1.016 ± 0.0033
TTGGGGCCCA | 1 ± 0.022
TGAGAAAAAT | 0.973 ± 0.018
AGGGGATTAT | 0.998 ± 0.038
TGATGGGAGT | 0.983 ± 0.014
GCAGACCTAT | 0.989 ± 0.058
GGGAGAGAGT | 0.999 ± 0.029
TTAGCGAGGC | 2.13 ± 1.2
CCTGGAGGTT | 0.964 ± 0.022
TACCATTTAG | 0.997 ± 0.025
GGCTCTCGTA | 0.992 ± 0.012

Sequence | switch fluorescence ratio
GTTTTTGCGG | 0.9784 ± 0.0044
AGCGTTGAAG | 0.997 ± 0.022
TAAGAATTCG | 1.04 ± 0.056
GGGTTCCATT | 1.023 ± 0.0075
TCGGTGTTTT | 1.05 ± 0.055
TTAAAGGCCC | 1.0667 ± 4.6e-05
ATGTCCTGTG | 1.01 ± 0.028
ACTGATCGCG | 1.02 ± 0.034
TTACAGGGGG | 1.03 ± 0.057
ATGGTTGTGT | 0.983 ± 0.034
TAAACTTGAC | 1.16 ± 0.1
CGTGCCCGGA | 1.03 ± 0.032
CTGAGAACTT | 0.983 ± 0.055
TTTCCCTTCT | 1.05 ± 0.06
CAGTATTAGA | 1.003 ± 0.0037
AGGGATGTAA | 0.992 ± 0.012
TGGAGTAAAA | 1.03 ± 0.053
CTCATCGTTC | 0.99555 ± 0.00034
CTTAGGGGGT | 1 ± 0.018
GGCGAGGTGT | 1 ± 0.034
ATACGGCATG | 1.08 ± 0.011
GGGAGTCGGG | 1.01 ± 0.0092
TTTGGGGTCG | 0.992 ± 0.034
GCAACTGATC | 1.19 ± 0.031
GCGCTATCTT | 1.06 ± 0.041

Sequence | switch fluorescence ratio
GAGCTGAGCG | 0.996 ± 0.031
GTTAGCTAGG | 1.04 ± 0.026
AAGGGAGCTG | 1.02 ± 0.15
GGCGTTGTTC | 0.984 ± 0.034
GGTCATGGGG | 0.978 ± 0.023
ATAGTATTTT | 0.995 ± 0.025
GAGTTTGTGG | 0.998 ± 0.024
AGGTTGAGG | 1.01 ± 0.021
CCGGGCGATG | 1.6 ± 0.1
TTTGGCGGAG | 0.992 ± 0.03
TCGTTACGGG | 1.17 ± 0.26
TTGGGCCGTT | 1.01 ± 0.035
TTGGGGTGCA | 0.99 ± 0.018
TCGGGTTGAG | 1.01 ± 0.067
TCGGTAATC | 1.15 ± 0.0017
TTGATCCAGC | 0.9958 ± 0.0068
TTATTGTGCG | 1.03 ± 0.034
GGGATCTATG | 1.02 ± 0.027
GGTGTGGGCG | 0.983 ± 0.079
GCTCTATGGT | 1.006 ± 0.0078
CGTTTGGCTT | 1.01 ± 0.008
AGGTGTGGCT | 1 ± 0.048
ATACTTACCG | 1.223 ± 0.0077
AAAAGGGCGC | 1.03 ± 0.045
ACGGGCCTTG | 0.987 ± 0.0063

Sequence | switch fluorescence ratio
GGCGTTTATC | 0.9746 ± 0.0018
AAACAGGTTG | 1.05 ± 0.019
TGTCGTTGGG | 0.9566 ± 0.0035
ATTTTAAGTT | 0.99 ± 0.034
GATGCCACAG | 1.02 ± 0.07
TGGATGGCGT | 1.101 ± 0.0046
GGTGTTGGTG | 1.01 ± 0.025
CATAATATTA | 0.9698 ± 0.0032
GCGGGCAGGC | 0.99818 ± 0.00079
GTGGGACAGC | 1.02 ± 0.052
GCCCTGCAAT | 1.17 ± 0.056
AAGGACGGCC | 0.998 ± 0.026
TTTGGGGGTC | 1.1 ± 0.24
CGTTGGGGT | 0.986 ± 0.019
TGTGTATCGG | 0.958 ± 0.034
CCTTTTAGTT | 0.988 ± 0.026
GACCAACAGT | 1.03 ± 0.021
TTTTAGTAGT | 1.008 ± 0.01
CGTTTCAGAT | 1.02 ± 0.02
GCCAGACGTG | 0.995 ± 0.017
TGGGCCGGGG | 0.989 ± 0.019
ATTCACCGGA | 1.031 ± 0.0044
GACGGGCACA | 1.13 ± 0.028
TCATCCGTTT | 1.13 ± 0.15
TTAGAGAAAA | 1.03 ± 0.079

Sequence | switch fluorescence ratio
ATTCGTCGTC | 0.983 ± 0.077
AACATATCTT | 0.996 ± 0.014
CGGTAGGCGA | 0.985 ± 0.027
AGGTTAGGCT | 0.989 ± 0.014
TTCAAAATCT | 1.04 ± 0.019
TAGAGGGGG | 1.01 ± 0.014
TAGTTATGGT | 1.04 ± 0.019
TTTGTGTTG | 0.977 ± 0.024
GGTGGGGGT | 1.35 ± 0.48
TCGAGTATTC | 1.04 ± 0.013
GTTTTACCGG | 1 ± 0.022
TGGGTGCAAA | 1.01 ± 0.033
TAATATTTAG | 0.9863 ± 0.0031
TATACTTTTT | 1.01 ± 0.021
AGAGCGGGGT | 0.998 ± 0.0091
CGCGTTTTTG | 1.01 ± 0.014
ATAATGGAGT | 0.983 ± 0.066
TGGGTTATGC | 0.984 ± 0.018
GATATTTGCG | 1.015 ± 0.0024
GGTGGATTGG | 1.07 ± 0.1
TTTACGTGCA | 1.04 ± 0.073
TGTTCTTATA | 0.993 ± 0.026
TCTCATGGAG | 1 ± 0.012
GATTTAGATT | 1 ± 0.046
AAATTCGTAT | 0.9976 ± 0.0068

Sequence | switch fluorescence ratio
GCAACGGGAG | 0.988 ± 0.035
TCGTGCCAGG | 1.032 ± 0.01
CGAGGGACCC | 1.01 ± 0.044
GGCACAGATG | 1.02 ± 0.015
CAAGATGGGG | 0.95 ± 0.023
TTTTGCGGGA | 1.01 ± 0.057
GAGGACCCAG | 1.01 ± 0.027
TTACTTTTTT | 1.02 ± 0.033
AATGGGCGGA | 0.995 ± 0.017
ATTAGGGCAT | 1.006 ± 0.0075
ATCGGGGGAA | 1.05 ± 0.062
TTGCGAGGTG | 1.039 ± 0.0055
ATTACGGAAA | 1.74 ± 0.96
GCGTTATGTG | 1.017 ± 0.01
GACAGGTTAG | 0.9809 ± 0.0069
ACGTGACGGG | 1.07 ± 0.029
TCTCAGCAAA | 3.38 ± 0.53
AAAGCGGATT | 1 ± 0.018
TGTTAATGGT | 0.994 ± 0.025
CGTGAAGCGT | 0.998 ± 0.039
TGCATTGTTT | 0.999 ± 0.015
AGGGGATCAT | 0.981 ± 0.029
ATGTTTATGA | 0.981 ± 0.031
CTTGTACTAA | 1.012 ± 0.0062
GAAATTTACT | 0.991 ± 0.053
